Laboratory results from US20240150810.

Molecular target: AMC-Ubiquitin, P62979

B1: recombinant USP22 (protein)
chain: MVSRPEPEGEAMDAELAVAPPGCSHLGSFKVDNWKQNLRAIYQCFVWSGTAEARKRKAKSCICHVCGVHLNRLHSCLYCVFFGCFTKKHIHEHAKAKRHNLAIDLMYGGIYCFLCQDYIYDKDMEIIAKEEQRKAWKMQGVGEKFSTWEPTKRELELLKHNPKRRKITSNCTIGLRGLINLGNTCFMNCIVQALTHTPLLRDFFLSDRHRCEMQSPSSCLVCEMSSLFQEFYSGHRSPHIPYKLLHLVWTHARHLAGYEQQDAHEFLIAALDVLHRHCKGDDNGKKANNPNHCNCIIDQIFTGGLQSDVTCQVCHGVSTTIDPFWDISLDLPGSSTPFWPLSPGSEGNVVNGESHVSGTTTLTDCLRRFTRPEHLGSSAKIKCSGCHSYQESTKQLTMKKLPIVACFHLKRFEHSAKLRRKITTYVSFPLELDMTPFMASSKESRMNGQYQQPTDSLNNDNKYSLFAVVNHQGTLESGHYTSFIRQHKDQWFKCDDAIITKASIKDVLDSEGYLLFYHKQFLEYE
- fluorescence signal generated by cleavage of the fluorogenic substrate AMC-Ubiquitin (in vitro deubiquitination assay, time course): fluorescence resulting from the liberation of AMC increased over time in a USP22-dependent manner
